Here are results for 94 variants from the supplement of paper PMC10567573.

First the molecules themselves.
B1: TRIM9 (parent)
chain: PRNSCITCPQCHRSLILDDRGLRG
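Also: lentivirally expressed fusions sorted by FACS into six bins by GFP to DsRed ratio, PSI derived from sequencing read proportions per bin multiplied by bin number.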

The data set covers variants of B1. Kind of data set: protein stability index of a GFP-peptide fusion (GPS, HEK-293T) (PSI 1-6); higher = more stable. The following applies: c terminus: a fixed tail appended.
Regarding PLNSCITCPQCHRSLILDDRGLRG [R2L], the protein stability index is 2.24.
To PPNSCITCPQCHRSLILDDRGLRG [R2P] belongs 2.92; to PWNSCITCPQCHRSLILDDRGLRG [R2W], 2.14.
With PMNSCITCPQCHRSLILDDRGLRG [R2M], the protein stability index was 2.16.
Turning to PNNSCITCPQCHRSLILDDRGLRG [R2N], the protein stability index amounted to 2.44.
To PGNSCITCPQCHRSLILDDRGLRG [R2G] belongs 2.82; to PKNSCITCPQCHRSLILDDRGLRG [R2K], 2.19; to PHNSCITCPQCHRSLILDDRGLRG [R2H], 2.29.
On to PDNSCITCPQCHRSLILDDRGLRG [R2D], for which the protein stability index was 2.34.
In the case of PFNSCITCPQCHRSLILDDRGLRG [R2F], the protein stability index was determined as 1.89.
To PINSCITCPQCHRSLILDDRGLRG [R2I] belongs 2.64; to PYNSCITCPQCHRSLILDDRGLRG [R2Y], 3.02.
To PCNSCITCPQCHRSLILDDRGLRG [R2C] belongs 1.74; to PVNSCITCPQCHRSLILDDRGLRG [R2V], 1.92.
In the case of PTNSCITCPQCHRSLILDDRGLRG [R2T], the protein stability index was determined as 2.56.
To PANSCITCPQCHRSLILDDRGLRG [R2A] belongs 1.58; to PQNSCITCPQCHRSLILDDRGLRG [R2Q], 2.52; to PENSCITCPQCHRSLILDDRGLRG [R2E], 2.71.
For PSNSCITCPQCHRSLILDDRGLRG [R2S], the protein stability index is 1.94.
For PRTSCITCPQCHRSLILDDRGLRG [N3T] the value was 1.78; for PRYSCITCPQCHRSLILDDRGLRG [N3Y], 1.85.
For PRVSCITCPQCHRSLILDDRGLRG [N3V] the value was 1.83.
To PRESCITCPQCHRSLILDDRGLRG [N3E] belongs 2.16; to PRISCITCPQCHRSLILDDRGLRG [N3I], 1.92; to PRGSCITCPQCHRSLILDDRGLRG [N3G], 1.52.
As for PRASCITCPQCHRSLILDDRGLRG [N3A], the protein stability index was found to be 2.36.
For PRCSCITCPQCHRSLILDDRGLRG [N3C] the value was 1.8.
On to PRFSCITCPQCHRSLILDDRGLRG [N3F], for which the protein stability index was determined as 1.96.
As to PRWSCITCPQCHRSLILDDRGLRG [N3W], the protein stability index was found to be 1.62.
For PRMSCITCPQCHRSLILDDRGLRG [N3M], the protein stability index is 1.6.
To PRKSCITCPQCHRSLILDDRGLRG [N3K] belongs 1.94.
With PRHSCITCPQCHRSLILDDRGLRG [N3H], the protein stability index worked out at 2.53.
For the variant PRRSCITCPQCHRSLILDDRGLRG [N3R], the protein stability index was 2.03.
To PRDSCITCPQCHRSLILDDRGLRG [N3D] belongs 2.34.
To PRSSCITCPQCHRSLILDDRGLRG [N3S] belongs 2.5; to PRLSCITCPQCHRSLILDDRGLRG [N3L], 2.52; to PRPSCITCPQCHRSLILDDRGLRG [N3P], 1.49.
For PRNSQITCPQCHRSLILDDRGLRG [C5Q] the value was 1.92; for PRNSLITCPQCHRSLILDDRGLRG [C5L], 2.29.
With PRNSVITCPQCHRSLILDDRGLRG [C5V], the protein stability index was found to be 2.8.
On to PRNSIITCPQCHRSLILDDRGLRG [C5I], for which the protein stability index worked out at 2.34.
To PRNSDITCPQCHRSLILDDRGLRG [C5D] belongs 2.11; to PRNSEITCPQCHRSLILDDRGLRG [C5E], 2.67; to PRNSFITCPQCHRSLILDDRGLRG [C5F], 2.08.
To PRNSTITCPQCHRSLILDDRGLRG [C5T] belongs 2.02; to PRNSSITCPQCHRSLILDDRGLRG [C5S], 2.42; to PRNSNITCPQCHRSLILDDRGLRG [C5N], 1.99.
For PRNSPITCPQCHRSLILDDRGLRG [C5P] the value was 2.49.
For the variant PRNSRITCPQCHRSLILDDRGLRG [C5R], the protein stability index came out at 3.09.
To PRNSYITCPQCHRSLILDDRGLRG [C5Y] belongs 1.87.
To PRNSKITCPQCHRSLILDDRGLRG [C5K] belongs 1.71.
For PRNSGITCPQCHRSLILDDRGLRG [C5G] the value was 2.75.
As for PRNSHITCPQCHRSLILDDRGLRG [C5H], the protein stability index amounted to 1.77.
To PRNSAITCPQCHRSLILDDRGLRG [C5A] belongs 1.67; to PRNSCDTCPQCHRSLILDDRGLRG [I6D], 2.15.
For PRNSCETCPQCHRSLILDDRGLRG [I6E] the value was 2.02.
For PRNSCCTCPQCHRSLILDDRGLRG [I6C] the value was 2.26; for PRNSCFTCPQCHRSLILDDRGLRG [I6F], 1.66; for PRNSCATCPQCHRSLILDDRGLRG [I6A], 1.48.
Consider LRNSCITCPQCHRSLILDDRGLRG [P1L], for which the protein stability index was 2.29.
For HRNSCITCPQCHRSLILDDRGLRG [P1H] the value was 2.47.
In the case of NRNSCITCPQCHRSLILDDRGLRG [P1N], the protein stability index came to 2.16.
For RRNSCITCPQCHRSLILDDRGLRG [P1R], the protein stability index turned out to be 2.28.
For MRNSCITCPQCHRSLILDDRGLRG [P1M] the value was 1.76; for GRNSCITCPQCHRSLILDDRGLRG [P1G], 1.71.
To WRNSCITCPQCHRSLILDDRGLRG [P1W] belongs 1.94; to ARNSCITCPQCHRSLILDDRGLRG [P1A], 1.82; to CRNSCITCPQCHRSLILDDRGLRG [P1C], 2.61.
For TRNSCITCPQCHRSLILDDRGLRG [P1T] the value was 1.97.
With VRNSCITCPQCHRSLILDDRGLRG [P1V], the protein stability index was 2.46.
On to IRNSCITCPQCHRSLILDDRGLRG [P1I], for which the protein stability index stood at 2.33.
With DRNSCITCPQCHRSLILDDRGLRG [P1D], the protein stability index came to 2.4.
Regarding ERNSCITCPQCHRSLILDDRGLRG [P1E], the protein stability index turned out to be 3.1.
For KRNSCITCPQCHRSLILDDRGLRG [P1K] the value was 2.48; for YRNSCITCPQCHRSLILDDRGLRG [P1Y], 2.04.
To QRNSCITCPQCHRSLILDDRGLRG [P1Q] belongs 1.83; to SRNSCITCPQCHRSLILDDRGLRG [P1S], 2.61; to PRNNCITCPQCHRSLILDDRGLRG [S4N], 1.8.
In the case of PRNLCITCPQCHRSLILDDRGLRG [S4L], the protein stability index worked out at 2.37.
To PRNYCITCPQCHRSLILDDRGLRG [S4Y] belongs 2.17; to PRNVCITCPQCHRSLILDDRGLRG [S4V], 2.27; to PRNGCITCPQCHRSLILDDRGLRG [S4G], 1.76.
For PRNWCITCPQCHRSLILDDRGLRG [S4W] the value was 1.71.
To PRNDCITCPQCHRSLILDDRGLRG [S4D] belongs 2.29; to PRNPCITCPQCHRSLILDDRGLRG [S4P], 2.1; to PRNTCITCPQCHRSLILDDRGLRG [S4T], 1.73.
Take PRNECITCPQCHRSLILDDRGLRG [S4E]: the protein stability index was determined as 2.2.
For PRNFCITCPQCHRSLILDDRGLRG [S4F] the value was 2.31; for PRNMCITCPQCHRSLILDDRGLRG [S4M], 2.89.
For PRNHCITCPQCHRSLILDDRGLRG [S4H] the value was 2.14; for PRNQCITCPQCHRSLILDDRGLRG [S4Q], 1.85; for PRNICITCPQCHRSLILDDRGLRG [S4I], 2.52.
To PRNKCITCPQCHRSLILDDRGLRG [S4K] belongs 1.65; to PRNACITCPQCHRSLILDDRGLRG [S4A], 2.
